Results from patent US20020039577A1 (published 2002).

Assays:
L104EA29YIg [1] = target: T1, L104EA29YIg (human, UniProt P16410 38-161; P01857 99-330 = IgG part, A29Y; L104E); experiment: flow cytometry on human CD80-transfected CHO cells
T1 construct: extracellular domain;domain: hinge, CH2 and CH3 regions of IgC1; Same mobility as dimeric CTLA4Ig; Positions count from methionine +1, not on the UniProt precursor; also called double-site CTLA4 mutant molecule; ATCC PTA-2104
Procedure: (§1) Bound immunoglobulin fusion protein was detected using fluorescein isothiocyanate-conjugated goat anti-human immunoglobulin.
(§2) Binding on a total of 5,000 viable cells was analyzed (single determination) on a FACScan, and mean fluorescence intensity (MFI) was determined from data histograms using PC-LYSYS.

L104EA29YIg [2] = target: T1, L104EA29YIg; experiment: flow cytometry on human CD86-transfected CHO cells
Procedure: as §1, §2

T1 sequence (P16410 other isoform, or with tags, fused parts or gaps A29Y/L104E): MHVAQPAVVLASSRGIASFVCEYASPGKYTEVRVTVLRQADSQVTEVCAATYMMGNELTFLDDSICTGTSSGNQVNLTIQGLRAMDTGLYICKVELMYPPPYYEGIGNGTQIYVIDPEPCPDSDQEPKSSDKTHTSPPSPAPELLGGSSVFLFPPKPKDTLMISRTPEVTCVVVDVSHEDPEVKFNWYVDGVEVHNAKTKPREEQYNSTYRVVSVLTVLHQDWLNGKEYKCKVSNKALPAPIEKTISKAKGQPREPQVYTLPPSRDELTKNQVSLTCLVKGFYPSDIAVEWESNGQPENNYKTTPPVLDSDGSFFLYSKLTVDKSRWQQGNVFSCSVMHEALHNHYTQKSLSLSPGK

| binding result (L104EA29YIg [1]) | binding result (L104EA29YIg [2]) | Binder |
| --- | --- | --- |
| binds |  | human CD80 on stably transfected CHO cells (ligand, UniProt P33681 35-288, looked up, whole, on cells; also called CD80-positive CHO cells; CD80+ CHO cells) VIHVTKEVKEVATLSCGHNVSVEELAQTRIYWQKEKKMVLTMMSGDMNIWPEYKNRTIFDITNNLSIVILALRPSDEGTYECVVLKYEKDAFKREHLAEVTLSVKADFPTPSISDFEIPTSNIRRIICSTSGGFPEPHLSWLENGEELNAINTTVSQDPETELYAVSSKLDFNMTTNHSFMCLIKYGHLRVNQTFNWNTTKQEHFPDNLLPSWAITLISVNGIFVICCLTYCFAPRCRERRRNERLRRESVRPV |
|  | binds | human CD86 on stably transfected CHO cells (ligand, UniProt P42081 24-329, looked up, whole, on cells; also called CD86-positive CHO cells; CD86+ CHO cells) APLKIQAYFNETADLPCQFANSQNQSLSELVVFWQDQENLVLNEVYLGKEKFDSVHSKYMGRTSFDSDSWTLRLHNLQIKDKGLYQCIIHHKKPTGMIRIHQMNSELSVLANFSQPEIVPISNITENVYINLTCSSIHGYPEPKKMSVLLRTKNSTIEYDGVMQKSQDNVTELYDVSISLSVSFPDVTSNMTIFCILETDKTRLLSSPFSIELEDPQPPPDHIPWITAVLPTVIICVMVFCLILWKWKKKKRPRNSYKCGTNTMEREESEQTKKREKIHIPERSDEAQRVFKSSKTSSCDKSDTCF |
